Here are results for one molecule from patent US20100061942A1 (UNIVERSITY OF MEDICINE AND DENTISTRY OF NEW JERSEY, published 2010).

For this assay, the target named is human STIM1 (human, UniProt Q13586 23-685, limits assumed). The assay is described as follows: co-immunoprecipitation from CHO cell lysates, Western blot; repeated with cross-linker DSP and different detergents. The protocol:
Next, the interaction of P311 with SOCE molecular machinery was examined experimentally. The interaction of P311 with known components of SOCE, such as STIM1 and Orai1, was studied. A GFP-myc-Orai1 plasmid and the mammalian expression plasmid containing the human STIM1 cDNA (OriGene, Inc.) were used. The plasmids were transfected into CHO cells and 36 hours after transfection, total cell lysates from CHO cells transiently expressing GFP-myc-Orai1 were incubated with either a polyclonal antibody against P311, or an anti-myc monoclonal antibody, with normal rabbit IgG serving as the control. […] Similar results were obtained when co-IP assays were repeated using reversible cross-linker DSP and different detergents in cell lysis buffer, including Triton X-100, NP-40 and CHAPS.

human STIM1, sequence (Q13586 23-685 limits assumed): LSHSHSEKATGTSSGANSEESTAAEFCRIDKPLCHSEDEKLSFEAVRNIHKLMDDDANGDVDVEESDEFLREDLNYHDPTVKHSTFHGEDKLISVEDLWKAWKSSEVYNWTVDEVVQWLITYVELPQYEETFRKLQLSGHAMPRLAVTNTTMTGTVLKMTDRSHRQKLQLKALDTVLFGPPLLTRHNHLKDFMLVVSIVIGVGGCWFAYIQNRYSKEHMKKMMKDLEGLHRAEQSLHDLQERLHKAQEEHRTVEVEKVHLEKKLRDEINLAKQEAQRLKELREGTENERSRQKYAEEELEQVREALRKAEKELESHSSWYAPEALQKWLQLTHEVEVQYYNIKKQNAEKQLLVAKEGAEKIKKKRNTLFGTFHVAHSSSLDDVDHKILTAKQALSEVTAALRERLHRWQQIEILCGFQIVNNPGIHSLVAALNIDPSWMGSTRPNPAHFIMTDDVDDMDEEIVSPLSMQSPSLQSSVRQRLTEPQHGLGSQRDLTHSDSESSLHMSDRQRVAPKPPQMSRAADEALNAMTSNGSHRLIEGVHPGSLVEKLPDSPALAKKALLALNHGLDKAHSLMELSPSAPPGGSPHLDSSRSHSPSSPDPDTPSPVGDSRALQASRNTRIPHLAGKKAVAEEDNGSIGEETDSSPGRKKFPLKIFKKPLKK

B1: P311 (endogenous P311 present in CHO cells) (other)
chain: MVYYPGLLVWVSQEPFLYKEMEGSLTKGRLPVPKEVNRKKLEEARAASMTPPGSHELCFPNISYL
Consider B1, for which the binding result is given as “no binding”.
